From publication PMC3509593, “Role of Key Residues at the Flavin Mononucleotide (FMN):Adenylyltransferase Catalytic Site of the Bifunctional Riboflavin Kinase/Flavin Adenine Dinucleotide (FAD) Synthetase from Corynebacterium ammoniagenes” (International Journal of Molecular Sciences, 2012)

Molecular target: the molecule itself
Assay: SEC; gel filtration of the purified samples on a HiPrep 26/60 Sephacryl S-200 HR column, used to separate the monomeric fraction

B1: FAD synthetase from Corynebacterium ammoniagenes (wild type) (enzyme)
chain: MDIWYGTAAVPKDLDNSAVTIGVFDGVHRGHQKLINATVEKAREVGAKAIMVTFDPHPVSVFLPRRAPLGITTLAERFALAESFGIDGVLVIDFTRELSGTSPEKYVEFLLEDTLHASHVVVGANFTFGENAAGTADSLRQICQSRLTVDVIDLLDDEGVRISSTTVREFLSEGDVARANWALGRHFYVTGPVVRGAGRGGKELGFPTANQYFHDTVALPADGVYAGWLTILPTEAPVSGNMEPEVAYAAAISVGTNPTFGDEQRSVESFVLDRDADLYGHDVKVEFVDHVRAMEKFDSVEQLLEVMAKDVQKTRTLLAQDVQAHKMAPETYFLQAES
notes: FAD synthetase (bifunctional RFK/FMNAT) of Corynebacterium ammoniagenes; N-terminal FMNAT-module residues 1-186 and C-terminal RFK-module residues 187-338; also called CaFADS; WT CaFADS; source: gel filtration on Sephacryl S-200 HR
B1: binds.
